Biological target: the molecule itself
Assay: MALDI-TOF mass spectrometry; top-down analysis of purified MSMB3 without any reduction or alkylation

B1: chicken beta-microseminoprotein 3 (MSMB3), proteoform lacking the C-terminal glycine, MSMB3(-G) (natural protein, chicken (Gallus gallus))
chain: RCYFRTSSKYGCISNRNLYVFGAVWKTEDCYQCKCKMNAMVCCSLVSIPKNYDRVNCVGLFHKKSCSIRVVKKTDPDISCKVYNGV
modifications: five disulfide bridges (C2-C43, C12-C35, C30-C66, C33-C42, C57-C80); delta mass of -1 Da on two lysines, especially K63 (potential oxidation of the lysine residue)
notes: chicken (Gallus gallus) MSMB3, mature protein without its C-terminal G87 (major proteoform of the purified sample, residues 1-86); numbers count on: the mature protein; The dimer seen by mass spectrometry and the crystal structure are of MSMB3(-G); the NMR sample is called only MSMB3; also called Gga-MSMB3; Gga-MSMB3 without G
stoichiometry N: 2

— article PMC8167871, “Three‐dimensional structures of avian beta‐microseminoproteins: insight from the chicken egg‐specific beta‐microseminoprotein 3 paralog” (FEBS Open Bio, 2021)
